According to patent JP2019156807A:
Values joined by “and” are separate entries in the source; they are usually repeats but may differ in a detail not shown here. Equal values may be shown once.

Target: 変性ヒトCD26(ホルマリン固定パラフィン包埋した細胞・組織中、又はSDS/DTT煮沸処理した細胞溶解物中のヒトCD26) (human) (UniProt P27487)
Test: immunostaining of FFPE samples, titration of purified antibody (data not shown)

Sequence of UniProt P27487 (P27487 whole entry): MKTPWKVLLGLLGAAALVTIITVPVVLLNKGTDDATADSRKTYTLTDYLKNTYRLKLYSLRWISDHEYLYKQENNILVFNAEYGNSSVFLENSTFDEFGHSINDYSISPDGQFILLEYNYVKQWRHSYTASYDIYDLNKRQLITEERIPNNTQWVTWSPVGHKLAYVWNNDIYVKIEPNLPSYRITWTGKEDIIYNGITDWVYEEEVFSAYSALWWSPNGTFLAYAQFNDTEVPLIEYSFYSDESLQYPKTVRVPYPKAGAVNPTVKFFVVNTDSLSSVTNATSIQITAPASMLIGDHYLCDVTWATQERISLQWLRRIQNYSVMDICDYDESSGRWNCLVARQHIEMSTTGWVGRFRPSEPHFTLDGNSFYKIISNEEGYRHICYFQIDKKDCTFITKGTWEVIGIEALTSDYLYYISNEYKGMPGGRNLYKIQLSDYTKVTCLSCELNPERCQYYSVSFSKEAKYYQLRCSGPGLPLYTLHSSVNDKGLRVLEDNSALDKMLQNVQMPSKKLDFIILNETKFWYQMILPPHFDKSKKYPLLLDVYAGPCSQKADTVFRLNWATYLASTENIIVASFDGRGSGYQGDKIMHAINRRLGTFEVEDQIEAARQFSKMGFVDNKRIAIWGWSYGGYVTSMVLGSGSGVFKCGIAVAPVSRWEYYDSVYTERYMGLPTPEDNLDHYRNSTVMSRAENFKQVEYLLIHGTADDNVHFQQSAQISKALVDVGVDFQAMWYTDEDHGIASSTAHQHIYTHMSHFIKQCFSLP

免疫染色の最適濃度	Binder
0.1 μg/mL and 0.2 μg/mL	抗ヒトCD26モノクローナル抗体U16−3 (antibody, V domains shown) VH: EVKLVESGGGLVQPGGSLKLSCATSGFTFSDFYMYWVRQTPEKRLEWVAYISKGGGTTSYPDTVKGRFTISRDNAKNTLYLQLSRLKAEDSAMYYCARRMDYWGQGTSVTVSS VL: DVQMNQSPSSMYASLGERVTITCKASQDINSYLSWFQQKPGKSPKTLIYRANRLVDGVPSRFSGSGSGQDYSLTISSLDYEDMGIYYCLQYDEFPLTFGAGTKLELK
0.5 μg/mL	抗ヒトCD26モノクローナル抗体U38−8 (antibody, V domains shown) VH: EVKLVESGGGLVQPGGSLKLSCATSGFTFSDFYMYWVRQTPEKRLEWVAYISKGGGTTSYPDTVKGRFTISRDNAKNTLYLQLSRLKAEDSAMYYCARRMDYWGQGTSVTVSS VL: DVVVTQTPLSLPVSLGDQASISCRSSQGLEHSSGNTYLHWYLQRPGQSPKLLIYKVSNRFSGVPDRFSGSGSGTDFTLKISRVEAEDLGVYFCSQSTPVPTWTFGGGTKLEIK
